From article PMC2788870

Molecular target: His6-HPr (B. subtilis) (UniProt P08877)
Assay: pull-down

UniProt P08877, sequence (P08877 whole entry): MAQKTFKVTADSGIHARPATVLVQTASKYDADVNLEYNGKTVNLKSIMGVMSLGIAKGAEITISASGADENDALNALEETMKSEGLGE

stoichiometry N: 1
Substance: GST-HBD (from UniProt O31522 403-515) (domain or fragment)
